Laboratory results reported in the supplement of paper PMC9732359.
± gives the uncertainty stated by the source.

Assay: protein stability index of a GFP-peptide fusion (yeast GPS) (PSI 1-4); higher = more stable; sorted into four equal gates, so the index is relative within each strain
Summary of the method: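 Tiled 17-residue yeast protein peptides were fused downstream of GFP in a plasmid that also expresses Cherry, and the pooled library was carried in yeast. Mid-log cultures in leucine-free medium were sorted into four equal gates by GFP/Cherry fluorescence ratio, and plasmids from each gate were PCR-amplified and Illumina-sequenced, with reads assigned to strains by barcodes. The protein stability index for each peptide was each gate's read frequency times its gate number, summed.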

| Sequence | protein stability index (doa10∆) | protein stability index (pdr5∆) | protein stability index (san1∆) | protein stability index (ubr1∆) |
| --- | --- | --- | --- | --- |
| QSYGGRPYGVGLLIIGY [PRE5] | 2.96 ± 0.078 | 3.01 ± 0.067 | 2.83 ± 0.07 | 2.56 ± 0.071 |
| RTHFKRMRFPPFDDDEP [PRP8] | 2.65 ± 0.042 | 3.03 ± 0.047 | 2.91 ± 0.044 | 2.77 ± 0.035 |
| PTTVSYIFCISRTIGMV [SCL1] | 1.99 ± 0.039 | 1.97 ± 0.051 | 2.88 ± 0.036 | 1.95 ± 0.039 |
| PETGDHVVGRIAEVGNK [RRP4] | 3.27 ± 0.076 | 3.44 ± 0.065 | 3.05 ± 0.1 | 3.08 ± 0.15 |
| IFSQMSRLLDILEDYCY [ISW2] | 1.66 ± 0.048 | 2.8 ± 0.094 | 2.03 ± 0.11 | 3.01 ± 0.092 |
| TQMDGFDQSTNVKVIMA [RPT3] | 2.28 ± 0.062 | 2.35 ± 0.06 | 1.54 ± 0.077 | 2.31 ± 0.061 |
| ILDNTENYDDTELRQLF [DSN1] | 3.15 ± 0.066 | 3.28 ± 0.068 | 3.37 ± 0.042 | 3.29 ± 0.05 |
| QCCEFMTMLTPNYLHLV [YML103C/NUP188] | 2.23 ± 0.05 | 1.77 ± 0.045 | 1.66 ± 0.084 | 1.68 ± 0.041 |
| KIPAVEYFGGESPVDVQ [FAS1] | 2.97 ± 0.13 | 3.4 ± 0.099 | 3.19 ± 0.1 | 3.09 ± 0.092 |
| LGSQSKSDEGGSYLCTS [YOR098C/NUP1] | 3.26 ± 0.11 | 2.98 ± 0.07 | 3.14 ± 0.069 | 2.71 ± 0.081 |
| GSVMSASVEIVFHDPDH [SMC3] | 2.12 ± 0.091 | 2.53 ± 0.071 | 2.4 ± 0.084 | 2.55 ± 0.061 |
| HFFQIDGFNKTFHDELN [YML103C/NUP188] | 1.67 ± 0.07 | 2.04 ± 0.12 | 2.67 ± 0.14 | 2.85 ± 0.091 |
| ASKKSGGDVVKFQKLLQ [SMC4] | 3.42 ± 0.15 | 3.64 ± 0.12 | 3.19 ± 0.13 | 3.4 ± 0.17 |
| DAFVATAFATEFFVQVL [DLS1] | 2.98 ± 0.089 | 3.03 ± 0.089 | 3.12 ± 0.077 | 3.09 ± 0.072 |
| TEALLLEHDVEYRPFSK [DIS3] | 3.18 ± 0.095 | 3.08 ± 0.085 | 3.17 ± 0.08 | 3.3 ± 0.082 |
| KMPGGFTITVARKYLQT [FAS2] | 1.24 ± 0.039 | 1.47 ± 0.065 | 1.21 ± 0.084 | 1.27 ± 0.052 |
| RKQRVKKKTKKELELER [SWI1] | 2.69 ± 0.13 | 2.96 ± 0.13 | 3.56 ± 0.12 | 2.2 ± 0.13 |
| DWNKRFSHLAGGKIINK [BRR2] | 2.84 ± 0.075 | 3.33 ± 0.14 | 3.12 ± 0.2 | 3 ± 0.089 |
| KNEETPQNEKPPAYALL [RPC25] | 2.27 ± 0.23 | – | 2.05 ± 0.14 | 2.74 ± 0.24 |
| LNELHPTLPTNHNKTKL [PRP8] | 2.88 ± 0.064 | 3.08 ± 0.062 | 2.84 ± 0.056 | 2.72 ± 0.039 |
| TDAMTESQPKQTGTRRN [MCD1] | 3.04 ± 0.12 | 3.35 ± 0.12 | 3.2 ± 0.068 | 3.09 ± 0.061 |
| RKMTTDDDINWQELARS [RPT5] | 1.79 ± 0.055 | 2.93 ± 0.072 | 3.16 ± 0.097 | 3 ± 0.07 |
| SGITGECLQAYIFFGPI [RET1] | 2.6 ± 0.059 | 2.72 ± 0.064 | 2.64 ± 0.076 | 2.79 ± 0.051 |
| AYLLLVQGGNAAPSAAD [RPP2B] | 1.84 ± 0.05 | 1.98 ± 0.038 | 1.96 ± 0.062 | 2.45 ± 0.061 |
| DHILFTKTFIFIYKKVL [SRB8] | 1.49 ± 0.091 | 1.14 ± 0.14 | 1.15 ± 0.13 | 1.11 ± 0.044 |
| VASQSPHATATEKEPVP [SNF6] | 3.23 ± 0.11 | 3.06 ± 0.061 | 2.88 ± 0.15 | 3.35 ± 0.077 |

| Sequence | protein stability index (doa10∆) | protein stability index (pdr5∆) | protein stability index (san1∆) | protein stability index (ubr1∆) |
| --- | --- | --- | --- | --- |
| NRIIKADDHASVQINVA [RPS21A] | 2.89 ± 0.055 | 3.05 ± 0.052 | 2.99 ± 0.052 | 3.11 ± 0.039 |
| RHGSVVEASRRRRSSTN [MED1] | 3.19 ± 0.073 | 3.41 ± 0.078 | 3.26 ± 0.045 | 3.3 ± 0.044 |
| TTDDKSMDTKKKHKQKK [BRN1] | 3.21 ± 0.092 | 3.32 ± 0.09 | 3.51 ± 0.068 | 3.27 ± 0.054 |
| YVNVAISIYNMLPPKSV [SSN2] | 1.71 ± 0.049 | 1.82 ± 0.043 | 2.01 ± 0.062 | 2.12 ± 0.029 |
| RQTGPAKINEVYNNSKD [NSL1] | 3.06 ± 0.087 | 3.06 ± 0.083 | 2.93 ± 0.073 | 2.9 ± 0.062 |
| TPYSNESGLVNADLDVK [RPO21] | 2.75 ± 0.054 | 2.96 ± 0.073 | 3.02 ± 0.056 | 2.87 ± 0.046 |
| DLESSSPELKADLRPLQ [RPS7B] | 2.89 ± 0.29 | 2.97 ± 0.21 | – | 3.27 ± 0.17 |
| MNLVLNECIEERVPKTQ [SMB1] | 2.3 ± 0.23 | – | – | – |
| KIWSVKDGSNPRTLIGH [RPN14] | 3.12 ± 0.11 | 3.01 ± 0.12 | 2.95 ± 0.14 | 2.96 ± 0.12 |
| LNDRKVLFAAYKVEHPF [RPB11] | 1.72 ± 0.055 | 2.23 ± 0.058 | 2.03 ± 0.084 | 2.27 ± 0.051 |
| LFGAKPQNTTATTGGLF [YGR119C/NUP57] | 2.7 ± 0.084 | 3.06 ± 0.076 | 2.97 ± 0.12 | 2.59 ± 0.089 |
| TVPELEIPTQIYRTTRQ [ARP9] | 2.39 ± 0.076 | 2.8 ± 0.066 | 2.35 ± 0.08 | 2.83 ± 0.067 |
| HIKEASEEVDDLSMVPK [SNF2] | 3.27 ± 0.11 | 3.24 ± 0.25 | 3.13 ± 0.1 | 3.6 ± 0.16 |
| PNSSANNNPLQQQSSQN [GAL11] | 2.99 ± 0.051 | 3.03 ± 0.045 | 3.02 ± 0.033 | 2.98 ± 0.034 |
| ASKTNLRLTDVTNSLSN [GAL11] | 3.15 ± 0.072 | 3.38 ± 0.067 | 2.96 ± 0.051 | 3.28 ± 0.064 |
| AKEVYKIHQQLLFKARL [GAL11] | – | 3.18 ± 0.18 | – | 2.84 ± 0.25 |
| KGAATGKGRQSAKAELE [PRE10] | 1.24 ± 0.088 | 1.38 ± 0.079 | 1.45 ± 0.29 | 1.22 ± 0.064 |
| QQPTASDNIASLQYINI [SMD1] | 3.27 ± 0.09 | 3.27 ± 0.098 | 3.13 ± 0.12 | 3.24 ± 0.078 |
| RSEEEVTKLNVLVDEIK [YIL149C/MLP2] | 3.42 ± 0.15 | 3.5 ± 0.11 | 3.24 ± 0.059 | 3.36 ± 0.082 |
| KQGFVIYRVRVRRGNRK [RPL15A] | 1.17 ± 0.13 | 1.96 ± 0.11 | 1.29 ± 0.26 | 2.26 ± 0.089 |
| ASFGKNLQIRQLFNWCL [DSN1] | 1.2 ± 0.064 | 1.44 ± 0.051 | 1.29 ± 0.15 | 2.33 ± 0.12 |
| ENQPFHGIKDIPIGHVH [AAR2] | 2.79 ± 0.078 | 2.98 ± 0.086 | 2.89 ± 0.084 | 2.67 ± 0.092 |
| MFIEEPTRMVRVAKGSG [SRP54] | 3.09 ± 0.19 | 2.95 ± 0.23 | 2.75 ± 0.24 | 3.26 ± 0.15 |
| FKYRKARLEPGTAIGAI [RPO31] | 2.73 ± 0.16 | 1.99 ± 0.092 | 2.17 ± 0.1 | 2.33 ± 0.057 |
| TTSEATANDRQINNVHL [RPN4] | 2.97 ± 0.11 | 2.91 ± 0.079 | 2.49 ± 0.087 | 2.7 ± 0.097 |
| GNIDTKNNILGSNVLKS [RRP43] | 2.86 ± 0.039 | 2.97 ± 0.044 | 2.92 ± 0.032 | 3.041 ± 0.027 |
